The series deals with the molecule itself. Kind of series: crystal structure; two crystal structures of AtGDH1 (apo, 2.59 Å; complex with NAD+, 2.03 Å; 2OG in one subunit of the latter); one homohexamer in the asymmetric unit, space group P212121; inter-subunit contacts analysed with PISA.

B1: Glutamate dehydrogenase 1 from Arabidopsis thaliana (AtGDH1), homohexamer of α subunits (enzyme, A. thaliana, UniProt Q43314 1-411, looked up)
chain: MNALAATNRNFKLAARLLGLDSKLEKSLLIPFREIKVECTIPKDDGTLASFVGFRVQHDNARGPMKGGIRYHPEVDPDEVNALAQLMTWKTAVAKIPYGGAKGGIGCDPSKLSISELERLTRVFTQKIHDLIGIHTDVPAPDMGTGPQTMAWILDEYSKFHGYSPAVVTGKPIDLGGSLGRDAATGRGVMFGTEALLNEHGKTISGQRFVIQGFGNVGSWAAKLISEKGGKIVAVSDITGAIKNKDGIDIPALLKHTKEHRGVKGFDGADPIDPNSILVEDCDILVPAALGGVINRENANEIKAKFIIEAANHPTDPDADEILSKKGVVILPDIYANSGGVTVSYFEWVQNIQGFMWEEEKVNDELKTYMTRSFKDLKEMCKTHSCDLRMGAFTLGVNRVAQATILRGWGA
notes: Glutamate dehydrogenase 1 (AtGDH1, α subunit), Arabidopsis thaliana ecotype Col-0, locus At5g18170.1, UniProt Q43314; Cloned into pMCSG68; the His tag was cut off with TEV protease; also called glutamate dehydrogenase (isoform 1); source: E. coli BL21-Gold (DE3), purified (HisTrap, TEV cleavage, second HisTrap, Superdex 200 SEC)
In general, stoichiometry N refers to a count of units in the complex or per binding partner. As to B1, the “stoichiometry N” value is 6.

Source of the values: paper PMC7326016, “Structural Studies of Glutamate Dehydrogenase (Isoform 1) From Arabidopsis thaliana, an Important Enzyme at the Branch-Point Between Carbon and Nitrogen Metabolism” (Frontiers in Plant Science, 2020).
